From patent US11278600B2, “Human alpha-galactosidase variants” (Codexis, Inc., priority 2014, dated 2022)

What was measured:
Type in all cases: biochemical
[1] = HTP-analysis of yeast culture supernatants, no challenge (MUGal hydrolysis); conditions: activity of the variant/activity of Rd4BB (SEQ ID NO: 15)
Procedure, shortened: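 GLA variants were expressed in INVSc1 yeast grown in SD-Ura broth with glucose at 30° C., and culture supernatants were collected after 66-84 h. Supernatant was mixed with McIlvaine buffer pH 4.8 and MUGal (2 mM stock) in 50 mM citrate, 200 mM KCl, pH 4.6, incubated at 37° C. for 30-180 minutes, then quenched with sodium carbonate.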

[2] = HTP-analysis of supernatants pretreated with acid (MUGal hydrolysis); conditions: activity of the variant/activity of Rd4BB (SEQ ID NO: 15); challenge at pH 3.7
Procedure, shortened: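 Supernatants from INVSc1 yeast secreting GLA variants were challenged at 37° C. for 1-3 h in McIlvaine buffer at pH 3.3-4.3. Residual activity was then measured on 4 mM MUGal substrate stock at pH 4.8 with citrate buffer pH 4.3, over 30-180 min at 37° C. Reactions were quenched with sodium carbonate and read by fluorescence (Ex 355/Em 448 nm).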

[3] = HTP-analysis of supernatants pretreated with base (MUGal hydrolysis); conditions: activity of the variant/activity of Rd4BB (SEQ ID NO: 15); challenge at pH 9.65
Procedure, shortened: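 Supernatants from INVSc1 yeast expressing GLA variants (SD-Ura, 66-84 h, 30° C) were mixed with McIlvaine buffer pH 7.0-8.2 or 200 mM sodium bicarbonate pH 9.1-9.7 and held 1-18 h at 37° C. Residual activity was then measured on MUGal at pH 4.8/4.3, 37° C, 30-180 min, by fluorescence (Ex 355/Em 448 nm).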

Molecule	Relative Activity of GLA Variants After No Challenge (NC) [1]	Relative Activity of GLA Variants After Challenge at pH 3.7 [2]	Relative Activity of GLA Variants After Challenge at pH 9.65 [3]
498 (protein, Synthetic Polypeptide sequence of Variant No. 498 of mature Human GLA) LDNGLARTPTMGWLHWERFMCNLDCQEEPDSCISEKLFMEMAERMVSEGWKDAGYEYLCIDDCWMAPQRDSEGRLQADPQRFPHGIRQLANYVHSKGLKLGIYADVGNKTCAGFPGSFGYYDIDAQTFADWGVDLLKFDGCYCDSLENLADGYKHMSLALNRTGRSIVYSCEWPLYMWPFQKPNYTEIRQYCNHWRNFADIDDSWKSIKSILDWTSFNQERIVDVAGPGGWNDPDMLVIGNFGLSWNQQVTQMALWAIMAAPLFMSNDLRHISPQAKALLQDKDVIAINQDPLGKQGYQLRQGDNFEVWERPLSGLAWAVAMINRQEIGGPRSYTIAVASLGKGVACNPACFITQLLPVKRKLGFYEWTSRLRSHINPTGTVLLQLENTMQISLKDLL	+ (0.5 to 1.5 relative activity over Rd4BB (SEQ ID NO: 15))	+ (0.5 to 1.5 relative activity over Rd4BB (SEQ ID NO: 15))	+ (0.5 to 1.5 relative activity over Rd4BB (SEQ ID NO: 15))
501 (protein, Synthetic Polypeptide sequence of Variant No. 501 of mature Human GLA) LDNGLARTPTMGWLHWERFMCNLDCQEEPDSCISEKLFMEMAERMVSEGWKDAGYEYLCIDDCWMAPQRDSEGRLQADPQRFPHGIRQLANYVHSKGLKLGIYADVGNKTCAGFPGSFGYYDIDAQTFADWGVDLLKFDGCYCDSLENLADGYKHMSLALNRTGRSIVYSCEWPLYMWPFQKPNYTEIRQYCNHWRNFADIDDSWKSIKSILDWTSFNQERIVDVAGPGGWNDPDMLVIGNFGLSWNQQVTQMALWAIMAAPLFMSNDLRHISPQAKALLQDKDVIAINQDPLGKQGYQLRQGDNFEVWERPLSGLAWAVAMINRQEIGGPRSYTIAVASLGKGVACNPACFITQLLPVKRKLGFYEWTSRLRSHINPTGTVLLQLENTMQGSLKDLL	+ (0.5 to 1.5 relative activity over Rd4BB (SEQ ID NO: 15))	++ (>1.5 to 2.5 relative activity over Rd4BB (SEQ ID NO: 15))	+ (0.5 to 1.5 relative activity over Rd4BB (SEQ ID NO: 15))
502 (protein, Synthetic Polypeptide sequence of Variant No. 502 of mature Human GLA) LDNGLARTPTMGWLHWERFMCNLDCQEEPDSCISEKLFMEMAERMVSEGWKDAGYEYLCIDDCWMAPQRDSEGRLQADPQRFPHGIRQLANYVHSKGLKLGIYADVGNKTCAGFPGSFGYYDIDAQTFADWGVDLLKFDGCYCDSLENLADGYKHMSLALNRTGRSIVYSCEWPLYMWPFQKPNYTEIRQYCNHWRNFADIDDSWKSIKSILDWTSFNQERIVDVAGPGGWNDPDMLVIGNFGLSWNQQVTQMALWAIMAAPLFMSNDLRHISPQAKALLQDKDVIAINQDPLGKQGYQLRQGDNFEVWERPLSGLAWAVAMINRQEIGGPRSYTIAVASLGKGVACNPACFITQLLPVKRKLGFYEWTSRLRSHINPTGTVLLQSENTMQMSLKDLL	− (<0.5 relative activity over Rd4BB (SEQ ID NO: 15))	+ (0.5 to 1.5 relative activity over Rd4BB (SEQ ID NO: 15))	− (<0.5 relative activity over Rd4BB (SEQ ID NO: 15))
500 (protein, Synthetic Polypeptide sequence of Variant No. 500 of mature Human GLA) LDNGLARTPTMGWLHWERFMCNLDCQEEPDSCISEKLFMEMAERMVSEGWKDAGYEYLCIDDCWMAPQRDSEGRLQADPQRFPHGIRQLANYVHSKGLKLGIYADVGNKTCAGFPGSFGYYDIDAQTFADWGVDLLKFDGCYCDSLENLADGYKHMSLALNRTGRSIVYSCEWPLYMWPFQKPNYTEIRQYCNHWRNFADIDDSWKSIKSILDWTSFNQERIVDVAGPGGWNDPDMLVIGNFGLSWNQQVTQMALWAIMAAPLFMSNDLRHISPQAKALLQDKDVIAINQDPLGKQGYQLRQGDNFEVWERPLSGLAWAVAMINRQEIGGPRSYTIAVASLGKGVACNPACFITQLLPVKRKLGFYEWTSRLRSHINPTGTVLLQLENTAQMSLKDLL	+ (0.5 to 1.5 relative activity over Rd4BB (SEQ ID NO: 15))	+ (0.5 to 1.5 relative activity over Rd4BB (SEQ ID NO: 15))	+ (0.5 to 1.5 relative activity over Rd4BB (SEQ ID NO: 15))
504 (protein, Synthetic Polypeptide sequence of Variant No. 504 of mature Human GLA) LDNGLARTPTMGWLHWERFMCNLDCQEEPDSCISEKLFMEMAERMVSEGWKDAGYEYLCIDDCWMAPQRDSEGRLQADPQRFPHGIRQLANYVHSKGLKLGIYADVGNKTCAGFPGSFGYYDIDAQTFADWGVDLLKFDGCYCDSLENLADGYKHMSLALNRTGRSIVYSCEWPLYMWPFQKPNYTEIRQYCNHWRNFADIDDSWKSIKSILDWTSFNQERIVDVAGPGGWNDPDMLVIGNFGLSWNQQVTQMALWAIMAAPLFMSNDLRHISPQAKALLQDKDVIAINQDPLGKQGYQLRQGDNFEVWERPLSGLAWAVAMINRQEIGGPRSYTIAVASLGKGVACNPACFITQLLPVKRKLGFYEWTSRLRSHINPTGTVLLQLENTSQMSLKDLL	+ (0.5 to 1.5 relative activity over Rd4BB (SEQ ID NO: 15))	+ (0.5 to 1.5 relative activity over Rd4BB (SEQ ID NO: 15))	+ (0.5 to 1.5 relative activity over Rd4BB (SEQ ID NO: 15))
499 (protein, Synthetic Polypeptide sequence of Variant No. 499 of mature Human GLA) LDNGLARTPTMGWLHWERFMCNLDCQEEPDSCISEKLFMEMAERMVSEGWKDAGYEYLCIDDCWMAPQRDSEGRLQADPQRFPHGIRQLANYVHSKGLKLGIYADVGNKTCAGFPGSFGYYDIDAQTFADWGVDLLKFDGCYCDSLENLADGYKHMSLALNRTGRSIVYSCEWPLYMWPFQKPNYTEIRQYCNHWRNFADIDDSWKSIKSILDWTSFNQERIVDVAGPGGWNDPDMLVIGNFGLSWNQQVTQMALWAIMAAPLFMSNDLRHISPQAKALLQDKDVIAINQDPLGKQGYQLRQGDNFEVWERPLSGLAWAVAMINRQEIGGPRSYTIAVASLGKGVACNPACFITQLLPVKRKLGFYEWTSRLRSHINPTGTVLLQLENLMQMSLKDLL	+ (0.5 to 1.5 relative activity over Rd4BB (SEQ ID NO: 15))	+ (0.5 to 1.5 relative activity over Rd4BB (SEQ ID NO: 15))	+ (0.5 to 1.5 relative activity over Rd4BB (SEQ ID NO: 15))
503 (protein, Synthetic Polypeptide sequence of Variant No. 503 of mature Human GLA) LDNGLARTPTMGWLHWERFMCNLDCQEEPDSCISEKLFMEMAERMVSEGWKDAGYEYLCIDDCWMAPQRDSEGRLQADPQRFPHGIRQLANYVHSKGLKLGIYADVGNKTCAGFPGSFGYYDIDAQTFADWGVDLLKFDGCYCDSLENLADGYKHMSLALNRTGRSIVYSCEWPLYMWPFQKPNYTEIRQYCNHWRNFADIDDSWKSIKSILDWTSFNQERIVDVAGPGGWNDPDMLVIGNFGLSWNQQVTQMALWAIMAAPLFMSNDLRHISPQAKALLQDKDVIAINQDPLGKQGYQLRQGDNFEVWERPLSGLAWAVAMINRQEIGGPRSYTIAVASLGKGVACNPACFITQLLPVKRKLGFYEWTSRLRSHINPTGTVLLCLENTMQMSLKDLL	+ (0.5 to 1.5 relative activity over Rd4BB (SEQ ID NO: 15))	+ (0.5 to 1.5 relative activity over Rd4BB (SEQ ID NO: 15))	+ (0.5 to 1.5 relative activity over Rd4BB (SEQ ID NO: 15))
371 (protein, Synthetic Polypeptide sequence of Variant No. 371 of mature Human GLA) LDNGLARTPTMGWLHWERFMCNLDCQEEPDSCISEKLFMEMAEWMVSEGWKDAGYEYLCIDDCWMAPQRDSEGRLQADPQRFPHGIRQLANYVHSKGLKLGIYADVGNKTCAGFPGSFGYYDIDAQTFADWGVDLLKFDGCYCDSLENLADGYKHMSLALNRTGRSIVYSCEWPLYMWPFQKPNYTEIRQYCNHWRNFADIDDSWKSIKSILDWTSRNQERIVDVAGPGGWNDPDMLVIGNFGLSWDQQVTQMALWAIMAAPLFMSNDLRHISPQAKALLQDKDVIAINQDPLGKQGYQLRKGDNFEVWERPLSGDAWAVAIINRQEIGGPRSYTIPVASLGKGVACNPACFITQLLPVKRQLGFYNWTSRLKSHINPTGTVLLQLENTMQMSLKDLL	+ (0.5 to 1.5 relative activity over Rd4BB (SEQ ID NO: 15))	− (<0.5 relative activity over Rd4BB (SEQ ID NO: 15))	+ (0.5 to 1.5 relative activity over Rd4BB (SEQ ID NO: 15))
